These results are taken from patent publication US20120316071A1 (published 2012).

Substitutions are numbered along the chain they refer to. Numbers in names are those of the source.

B1: Fab VH1-46_IGHD6-6*01_IGHJ1*01 S102A/S103P/S104F/H111F S54G & L6_IGKJ1*01 (Fab, V domains shown)
VH: QVQLVQSGAEVKKPGASVKVSCKASGYTFTSYYMHWVRQAPGQGLEWMGIINPGGGSTSYAQKFQGRVTMTRDTSTSTVYMELSSLRSEDTAVYYCAREEYAPFSAEYFQFWGQGTLVTVSS
VL: not shown
notes: Fab made in E. coli; CH1 with tags and kappa CL are not included; also called APFF S54G
B2: Fab VH1-46_IGHD6-6*01_IGHJ1*01 S102A/S103P/S104F/H111F S54A/S59N & L6_IGKJ1*01 (Fab, V domains shown)
VH: B1 VH with G54A, S59N
VL: not shown
notes: Fab made in E. coli; CH1 with tags and kappa CL are not included; also called APFF S54A/S59N
B3: Fab VH1-46_IGHD6-6*01_IGHJ1*01 S102A/S103P/S104F/H111F S54V & L6_IGKJ1*01 (Fab, V domains shown)
VH: B1 VH with G54V
VL: not shown
notes: Fab made in E. coli; CH1 with tags and kappa CL are not included; also called APFF S54V
B4: Fab VH1-46_IGHD6-6*01_IGHJ1*01 S102A/S103P/S104F/H111F S54P & L6_IGKJ1*01 (Fab, V domains shown)
VH: B1 VH with G54P
VL: not shown
notes: Fab made in E. coli; CH1 with tags and kappa CL are not included; also called APFF S54P
B5: Fab VH1-46_IGHD6-6*01_IGHJ1*01 S102A/S103P/S104F/H111F S54E & L6_IGKJ1*01 (Fab, V domains shown)
VH: B1 VH with G54E
VL: not shown
notes: Fab made in E. coli; CH1 with tags and kappa CL are not included; also called APFF S54E
B6: Fab VH1-46_IGHD6-6*01_IGHJ1*01 S102A/S103P/S104F/H111F S54Q & L6_IGKJ1*01 (Fab, V domains shown)
VH: B1 VH with G54Q
VL: not shown
notes: Fab made in E. coli; also called APFF S54Q
B7: Fab VH1-46_IGHD6-6*01_IGHJ1*01 S102A/S103P/S104F/H111F S54R & L6_IGKJ1*01 (Fab, V domains shown)
VH: B1 VH with G54R
VL: not shown
notes: Fab made in E. coli; CH1 with tags and kappa CL are not included; also called APFF S54R
B8: Fab VH1-46_IGHD6-6*01_IGHJ1*01 S102A/S103P/S104F/H111F (APFF) & L6_IGKJ1*01 S28N (Fab, V domains shown)
VH: B1 VH with G54S
VL: EIVLTQSPATLSLSPGERATLSCRASQNVSSYLAWYQQKPGQAPRLLIYDASNRATGIPARFSGSGSGTDFTLTISSLEPEDFAVYYCQQRSNWPPWTFGQGTKVEIKR
notes: Fab; VH cloned into Plasmid A (CH1, His6 and Flag tags) and VL into Plasmid C (kappa CL); also called APFF / S28N
B9: Fab VH1-46_IGHD6-6*01_IGHJ1*01 S102A/S103P/S104F/H111F (APFF) & L6_IGKJ1*01 S28M (Fab, V domains shown)
VH: B1 VH with G54S
VL: B8 VL with N28M
notes: Fab; VH cloned into Plasmid A (CH1, His6 and Flag tags) and VL into Plasmid C (kappa CL); also called APFF / S28M
B10: Fab VH1-46_IGHD6-6*01_IGHJ1*01 S102A/S103P/S104F/H111F (APFF) & L6_IGKJ1*01 S28R (Fab, V domains shown)
VH: B1 VH with G54S
VL: B8 VL with N28R
notes: Fab; VH cloned into Plasmid A (CH1, His6 and Flag tags) and VL into Plasmid C (kappa CL); also called APFF / S28R
B11: Fab VH1-46_IGHD6-6*01_IGHJ1*01 S102A/S103P/S104F/H111F (APFF) & L6_IGKJ1*01 S28I (Fab, V domains shown)
VH: B1 VH with G54S
VL: B8 VL with N28I
notes: Fab; VH cloned into Plasmid A (CH1, His6 and Flag tags) and VL into Plasmid C (kappa CL); also called APFF / S28I
B12: Fab VH1-46_IGHD6-6*01_IGHJ1*01 S102A/S103P/S104F/H111F (APFF) & L6_IGKJ1*01 S28E (Fab, V domains shown)
VH: B1 VH with G54S
VL: B8 VL with N28E
notes: Fab; VH cloned into Plasmid A (CH1, His6 and Flag tags) and VL into Plasmid C (kappa CL); also called APFF / S28E
B13: Fab VH1-46_IGHD6-6*01_IGHJ1*01 S102A/S103P/S104F/H111F (APFF) & L6_IGKJ1*01 S28H (Fab, V domains shown)
VH: B1 VH with G54S
VL: B8 VL with N28H
notes: Fab; VH cloned into Plasmid A (CH1, His6 and Flag tags) and VL into Plasmid C (kappa CL); also called APFF / S28H

The first assay deals with T1, Recombinant Human DLL4 (delta-like protein 4) (human, UniProt Q9NR61 27-529).
T1 construct: Bought recombinant human DLL4 (R&D Systems Cat#1506-D4/CF), coated on the plate; also called rHuman DLL4; Delta-like 4
The experiment in a line: ELISA on coated DLL4, 100 nM Fab. (In an ELISA, binding on a coated surface is turned into a signal by an enzyme label.)
Regarding B1, the “ELISA signal” value is 0.06.
For B2, the “ELISA signal” value turned out to be 0.1.
On to B3, for which the “ELISA signal” value came to 0.
On to B4, for which the “ELISA signal” value is 0.
On to B5, for which the “ELISA signal” value was determined as 0.04.
Take B6: the “ELISA signal” value was 0.07.
B7: the “ELISA signal” value is 0.02.

Another assay deals with T2, rHuman IGF-1 sR, (IGF-1 sR), CF (R&D Systems Cat#391-GR) (human, UniProt P08069 31-932).
T2 construct: Bought recombinant soluble receptor; The column head prints only 'IGF-1'; also called insulin-like growth factor-1 soluble receptor
As to the kind of experiment: ECL multispot (MSD), antigen spotted, Fab in solution.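 Also: purified Fab incubated 1 h at 20 °C on antigen-spotted wells, bound Fab detected via TAG detection antibody, ECL compared with each well's blank, ratio of 4 or above scored as hit.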
The molecule B8 showed an ECL signal of 331.
The same measure, in the same setting: the result for B9 reads 341; that for B10, 437; that for B11, 353.
In turn, B12 yielded an ECL signal of 361.
The molecule B13 returned an ECL signal of 355.

A further assay addresses T3, rHuman Erythropoietin R/Fc Chimera, CF (R&D Systems Cat#963-ER) (human, UniProt P19235 25-250).
T3 construct: Bought recombinant Fc chimera; also called EPO R; EPO R/Fc; Fc part of the bought chimera not given
T3 sequence (looked up): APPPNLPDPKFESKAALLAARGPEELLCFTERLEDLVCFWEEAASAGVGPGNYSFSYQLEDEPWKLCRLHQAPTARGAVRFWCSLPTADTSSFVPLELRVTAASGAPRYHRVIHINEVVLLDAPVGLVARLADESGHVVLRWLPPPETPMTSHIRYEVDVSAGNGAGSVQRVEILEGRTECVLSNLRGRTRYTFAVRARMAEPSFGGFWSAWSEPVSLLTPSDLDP
Described as above.
Consider B8, for which the ECL signal came out at 440.
Take B9: the ECL signal was found to be 360.
The same measure, in the same setting: the result for B10 reads 542; that for B11, 450; that for B12, 513.
The same measure, in the same setting: as for B13, the figure is 517.

Another assay deals with T4, rHuman P-Cadherin/Fc Chimera, CF (R&D Systems Cat#861-PC) (human, UniProt P22223 108-654).
T4 construct: Bought recombinant Fc chimera; Fc part of the bought chimera not given
The description is as above.
B8 gave an ECL signal of 447.
B9 showed an ECL signal of 410.
Turning to B10, the ECL signal was found to be 395.
In turn, B11 displayed an ECL signal of 416.
In the case of B12, the ECL signal amounted to 393.
B13 came in with an ECL signal of 447.

Another assay concerns the target T5, rHuman Notch-1/Fc Chimera, CF (R&D Systems Cat#3647-TK) (human, UniProt P46531 19-526).
T5 construct: Bought recombinant Fc chimera; Fc part of the bought chimera not given
The description is as above.
In turn, B8 gave an ECL signal of 243.
Consider B9, for which the ECL signal amounted to 382.
For B10, the ECL signal was 425.
B11 yielded an ECL signal of 442.
Consider B12, for which the ECL signal was 433.
For the molecule B13, the ECL signal came to 482.

The target of another assay is T6, rHuman CD44/Fc Chimera, CF (R&D Systems Cat#3660-CD) (human, UniProt P16070 21-220).
T6 construct: Bought recombinant Fc chimera; Fc part of the bought chimera not given
The assay is described as above.
The molecule B8 registered an ECL signal of 399.
Still for that read-out and setting: the result for B9 reads 313.
B10 displayed an ECL signal of 378.
The same measure, in the same setting: the result for B11 reads 412; that for B12, 461; that for B13, 513.

In the next assay the target is T7, rHuman HGF R/c-MET/Fc Chimera, CF (R&D Systems Cat#358-MT/CF) (human, UniProt P08581 25-932).
T7 construct: Bought recombinant Fc chimera; also called HGF R/Fc; hepatocyte growth factor receptor; Fc part of the bought chimera not given
T7 sequence (P08581 25-932, change not shown): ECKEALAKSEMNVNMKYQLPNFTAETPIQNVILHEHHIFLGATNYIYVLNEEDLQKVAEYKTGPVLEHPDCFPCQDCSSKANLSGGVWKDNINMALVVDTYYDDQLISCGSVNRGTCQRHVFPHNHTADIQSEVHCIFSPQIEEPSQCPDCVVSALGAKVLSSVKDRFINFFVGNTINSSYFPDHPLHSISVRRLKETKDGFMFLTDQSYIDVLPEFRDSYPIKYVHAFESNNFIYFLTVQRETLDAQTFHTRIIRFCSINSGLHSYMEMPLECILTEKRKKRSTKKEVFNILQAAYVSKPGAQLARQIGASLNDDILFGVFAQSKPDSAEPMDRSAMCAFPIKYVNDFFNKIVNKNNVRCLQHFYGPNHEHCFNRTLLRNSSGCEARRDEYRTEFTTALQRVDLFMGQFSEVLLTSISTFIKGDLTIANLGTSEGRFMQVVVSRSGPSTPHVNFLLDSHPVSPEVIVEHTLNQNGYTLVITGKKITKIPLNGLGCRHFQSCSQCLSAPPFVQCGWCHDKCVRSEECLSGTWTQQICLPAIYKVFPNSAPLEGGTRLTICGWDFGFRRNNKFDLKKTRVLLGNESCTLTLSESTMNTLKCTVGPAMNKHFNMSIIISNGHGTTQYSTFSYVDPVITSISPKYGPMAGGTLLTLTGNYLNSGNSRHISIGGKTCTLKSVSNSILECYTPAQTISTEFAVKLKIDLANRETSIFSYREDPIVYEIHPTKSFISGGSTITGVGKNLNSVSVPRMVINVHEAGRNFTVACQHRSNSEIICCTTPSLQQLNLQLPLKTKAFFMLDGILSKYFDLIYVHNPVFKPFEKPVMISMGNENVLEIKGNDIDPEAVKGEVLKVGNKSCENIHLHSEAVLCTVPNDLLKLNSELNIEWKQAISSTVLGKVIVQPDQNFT
Described as above.
On to B8, for which the ECL signal was found to be 406.
On the same count and under the same terms, the result for B9 reads 305; that for B10, 378; that for B11, 369.
In turn, B12 returned an ECL signal of 401.
On to B13, for which the ECL signal was determined as 346.

In the next assay the target is T8, rHuman EGF R/Fc Chimera, CF (R&D Systems Cat#344-ER) (human, UniProt P00533 25-645).
T8 construct: Bought recombinant Fc chimera; also called epidermal growth factor receptor; Fc part of the bought chimera not given
The assay is described as above.
B8 showed an ECL signal of 325.
Consider B9, for which the ECL signal was 320.
In turn, B10 came in with an ECL signal of 403.
As to B11, the ECL signal stood at 386.
On to B12, for which the ECL signal was found to be 396.
Take B13: the ECL signal was found to be 435.

Another assay concerns the target T9, rHuman ErbB2/Fc Chimera, CF (R&D Systems Cat#1129-ER) (human, UniProt P04626 23-652).
T9 construct: Bought recombinant Fc chimera; also called human epidermal growth factor 2 receptor; Fc part of the bought chimera not given
The assay is described as above.
In turn, B8 had an ECL signal of 363.
The same measure, in the same setting: as for B9, the figure is 271; as for B10, 318.
Consider B11, for which the ECL signal turned out to be 265.
Molecule B12 yielded an ECL signal of 389.
In turn, B13 returned an ECL signal of 381.

The target in the next assay is T1, Recombinant Human DLL4 (delta-like …). The experiment in a line: 96-well plate ECL (MSD) binding assay on coated DLL4, 10 nM Fab.
On to B1, for which the “ECL signal” value came out at 47000.
For B2, the “ECL signal” value came out at 17300.
Turning to B3, the “ECL signal” value turned out to be 22200.
With B4, the “ECL signal” value was found to be 10100.
Regarding B5, the “ECL signal” value amounted to 36800.
Still for that read-out and setting: as for B6, the figure is 41800; as for B7, 26300.
